Experimental data as given in paper PMC10948613 (Frontiers in Plant Science, 2024).

T1: ProtA-tagged GLABRA3 (GL3) (Arabidopsis thaliana, UniProt Q9FN69 1-637)
T1 construct: GLABRA3 (GL3), basic helix-loop-helix (bHLH)-like transcription factor, Arabidopsis thaliana; Backbone pTREXdest30; The results write 'GL3-ProtA', but the methods say that the tag is fused to the N-terminus; also called GL3-ProtA; ProtA-tagged GL3; source: HEK293TM cells, transiently expressed, in lysate; not shown: Staphylococcus aureus protein A, N-terminal, kept
T1 sequence (looked up): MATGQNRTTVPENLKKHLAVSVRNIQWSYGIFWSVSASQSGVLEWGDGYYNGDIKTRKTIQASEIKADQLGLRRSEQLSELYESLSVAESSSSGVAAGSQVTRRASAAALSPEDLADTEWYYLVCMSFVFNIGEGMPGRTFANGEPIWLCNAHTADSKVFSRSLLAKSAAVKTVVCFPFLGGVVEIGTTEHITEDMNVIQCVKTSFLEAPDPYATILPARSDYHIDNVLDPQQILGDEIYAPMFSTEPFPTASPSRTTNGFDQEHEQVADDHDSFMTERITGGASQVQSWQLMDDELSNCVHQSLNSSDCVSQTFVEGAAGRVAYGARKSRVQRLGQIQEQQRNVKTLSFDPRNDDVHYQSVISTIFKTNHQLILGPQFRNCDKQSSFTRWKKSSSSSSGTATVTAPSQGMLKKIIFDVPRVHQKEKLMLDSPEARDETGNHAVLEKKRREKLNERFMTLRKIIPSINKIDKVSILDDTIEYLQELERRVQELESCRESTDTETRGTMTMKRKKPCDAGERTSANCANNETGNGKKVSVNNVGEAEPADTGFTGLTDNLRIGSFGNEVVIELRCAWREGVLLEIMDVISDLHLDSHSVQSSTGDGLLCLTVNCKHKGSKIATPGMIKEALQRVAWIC


Target: T1, ProtA-tagged GLABRA3 (GL3)
Experiment: pull-down; LUMIER pull-down: raw HEK293TM extracts of ProtA-tagged GL3 and a Renilla-tagged protein mixed, dilution series of the ratio, Renilla luminescence on the beads; ratios from HA Western blots; single-site reversible binding model; KD dimensionless and relative to the total GL3 concentration
Settings: partners not purified

Row | relative KD (KD divided by total GL3) | Binder
1 | 2.3 dimensionless, relative to the total GL3 concentration | Renilla-tagged CAPRICE (CPC) (natural protein, Arabidopsis thaliana, UniProt O22059 1-94, looked up, CAPRICE (CPC), R3MYB, Arabidopsis thaliana; Backbone pTREXdest30; also called CPC-Renilla; source: HEK293TM cells, transiently expressed, in lysate; not shown: Renilla reniformis luciferase (Rluc), N-terminal, kept) MFRSDKAEKMDKRRRRQSKAKASCSEEVSSIEWEAVKMSEEEEDLISRMYKLVGDRWELIAGRIPGRTPEEIERYWLMKHGVVFANRRRDFFRK
2 | 2.7 dimensionless, relative to the total GL3 concentration | Renilla-tagged TRIPTYCHON (TRY) (natural protein, Arabidopsis thaliana, UniProt Q8GV05 1-106, looked up, TRIPTYCHON (TRY), R3MYB, Arabidopsis thaliana; Backbone pTREXdest30; also called TRY-Renilla; source: HEK293TM cells, transiently expressed, in lysate; not shown: Renilla reniformis luciferase (Rluc), N-terminal, kept) MDNTDRRRRRKQHKIALHDSEEVSSIEWEFINMTEQEEDLIFRMYRLVGDRWDLIAGRVPGRQPEEIERYWIMRNSEGFADKRRQLHSSSHKHTKPHRPRFSIYPS
3 | 0.5 dimensionless, relative to the total GL3 concentration | Renilla-tagged GLABRA1 (GL1) (natural protein, Arabidopsis thaliana, UniProt P27900 1-228, looked up, GLABRA1 (GL1), R2R3MYB, Arabidopsis thaliana; Backbone pTREXdest30; also called GL1-Renilla; GL1Renilla; source: HEK293TM cells, transiently expressed, in lysate; not shown: Renilla reniformis luciferase (Rluc), N-terminal, kept) MRIRRRDEKENQEYKKGLWTVEEDNILMDYVLNHGTGQWNRIVRKTGLKRCGKSCRLRWMNYLSPNVNKGNFTEQEEDLIIRLHKLLGNRWSLIAKRVPGRTDNQVKNYWNTHLSKKLVGDYSSAVKTTGEDDDSPPSLFITAATPSSCHHQQENIYENIAKSFNGVVSASYEDKPKQELAQKDVLMATTNDPSHYYGNNALWVHDDDFELSSLVMMNFASGDVEYCL
4 | 1 dimensionless, relative to the total GL3 concentration | Renilla-tagged TRANSPARENT TESTA GLABRA1 (TTG1) (natural protein, Arabidopsis thaliana, UniProt Q9XGN1 1-341, looked up, TRANSPARENT TESTA GLABRA1 (TTG1), WD40 protein, Arabidopsis thaliana; Backbone pTREXdest30; also called TTG1-Renilla; Renilla-tagged TTG1; source: HEK293TM cells, transiently expressed, in lysate; not shown: Renilla reniformis luciferase (Rluc), N-terminal, kept) MDNSAPDSLSRSETAVTYDSPYPLYAMAFSSLRSSSGHRIAVGSFLEDYNNRIDILSFDSDSMTVKPLPNLSFEHPYPPTKLMFSPPSLRRPSSGDLLASSGDFLRLWEINEDSSTVEPISVLNNSKTSEFCAPLTSFDWNDVEPKRLGTCSIDTTCTIWDIEKSVVETQLIAHDKEVHDIAWGEARVFASVSADGSVRIFDLRDKEHSTIIYESPQPDTPLLRLAWNKQDLRYMATILMDSNKVVILDIRSPTMPVAELERHQASVNAIAWAPQSCKHICSGGDDTQALIWELPTVAGPNGIDPMSVYSAGSEINQLQWSSSQPDWIGIAFANKMQLLRV
